Data as given in publication PMC5089669, “Biocatalytic Properties and Structural Analysis of Eugenol Oxidase from Rhodococcus jostii RHA1: A Versatile Oxidative Biocatalyst” (Chembiochem, 2016).

Molecular target: the molecule itself
Assay: crystal structure; sitting-drop vapour diffusion at 20 °C; EUGO 15 mg/mL in 10 mM Tris-HCl pH 7.5 with 24 % PEG6000, 0.1 M Tris-HCl pH 8.0; crystals soaked with isoeugenol; two subunits in the asymmetric unit

B1: Eugenol oxidase (EUGO) from Rhodococcus jostii RHA1 (enzyme, UniProt Q0SBK1 1-526, looked up)
chain: MTRTLPPGVSDERFDAALQRFRDVVGDKWVLSTADELEAFRDPYPVGAAEANLPSAVVSPESTEQVQDIVRIANEYGIPLSPVSTGKNNGYGGAAPRLSGSVIVKTGERMNRILEVNEKYGYALLEPGVTYFDLYEYLQSHDSGLMLDCPDLGWGSVVGNTLDRGVGYTPYGDHFMWQTGLEVVLPQGEVMRTGMGALPGSDAWQLFPYGFGPFPDGMFTQSNLGIVTKMGIALMQRPPASQSFLITFDKEEDLEQIVDIMLPLRINMAPLQNVPVLRNIFMDAAAVSKRTEWFDGDGPMPAEAIERMKKDLDLGFWNFYGTLYGPPPLIEMYYGMIKEAFGKIPGARFFTHEERDDRGGHVLQDRHKINNGIPSLDELQLLDWVPNGGHIGFSPVSAPDGREAMKQFEMVRNRANEYNKDYAAQFIIGLREMHHVCLFIYDTAIPEAREEILQMTKVLVREAAEAGYGEYRTHNALMDDVMATFNWGDGALLKFHEKIKDALDPNGIIAPGKSGIWSQRFRGQNL
modifications: FAD covalently bound: bond between His390 and the C8M atom of the flavin ring
notes: eugenol oxidase (EUGO), flavoprotein oxidase of the VAO family, Rhodococcus jostii RHA1; source: E. coli culture
- stoichiometry N: 2
